Reference: PMC5678078 (2017)

T1: recombinant matriptase protease domain with an N-terminal thioredoxin tag (Trx-MTX PD) (human) (UniProt Q9Y5Y6)
T1 sequence: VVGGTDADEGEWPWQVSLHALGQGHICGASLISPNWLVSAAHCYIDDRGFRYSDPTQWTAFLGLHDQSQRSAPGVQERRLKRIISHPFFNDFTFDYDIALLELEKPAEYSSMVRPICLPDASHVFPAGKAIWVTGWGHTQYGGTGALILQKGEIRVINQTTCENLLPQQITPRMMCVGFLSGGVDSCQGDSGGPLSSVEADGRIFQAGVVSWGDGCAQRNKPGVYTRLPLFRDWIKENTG

T2: recombinant matriptase protease domain with an N-terminal thioredoxin tag (Trx-MTX PD) (human, UniProt Q9Y5Y6 615-854)
T2 chain: T1 sequence

B1: recombinant HAI-2 wild type (rHAI-2 WT) from the baculovirus expression system (domain or fragment)
chain: ADRERSIHDFCLVSKVVGRCRASMPRWWYNVTDGSCQLFVYGGCDGNSNNYLTKEECLKKCATVTENATGDLATSRNAADSSVPSAPRRQDSEDHSSDMFNYEEYCTANAVTGPCRASFPRWYFDVERNSCNNFIYGGCRGNKNSYRSEEACMLRCFRQQENPPLPLGSK
B2: GST fusion protein of HAI-2 Kunitz domain 1 (GST-KD1) (domain or fragment)
chain: CLVSKVVGRCRASMPRWWYNVTDGSCQLFVYGGCDGNSNNYLTKEECLKKC
B3: GST fusion protein of HAI-2 Kunitz domain 2 (GST-KD2) (domain or fragment)
chain: CTANAVTGPCRASFPRWYFDVERNSCNNFIYGGCRGNKNSYRSEEACMLRC

Columns and labels:
[1] = target: T1, recombinant matriptase protease domain with an N-terminal thioredoxin tag (Trx-MTX PD) (human)
[2] = target: T1, recombinant matriptase protease domain with an N-terminal thioredoxin tag (Trx-MTX PD) (human); assay: SPR; BIAcore; Trx-MTX PD amine-coupled to a CM5 chip; GST fusion proteins as analytes at 30 µl/min, 120 sec association, 180 sec dissociation; 10 mM HEPES, 150 mM NaCl, pH 7.4; KD by affinity analysis (BIAevaluation), called estimated
[3] = target: T2, recombinant matriptase protease domain …; assay: SPR

Molecule	Kd [2] [nM]	Kd [3] [nM]	also measured
recombinant HAI-2 KD1-deleted mutant (rHAI-2ΔKD1) from the baculovirus expression system (from UniProt O43291 28-197) (domain or fragment)			inhibition of the in vitro proteolytic activity of Trx-MTX PD (100 nM) on Boc-Gln-Ala-Arg-AMC by rHAI-2ΔKD1 (500 nM) [1]: 80%
recombinant HAI-2 KD2-deleted mutant (rHAI-2ΔKD2) from the baculovirus expression system (from UniProt O43291 28-197) (domain or fragment)			inhibition of the in vitro proteolytic activity of Trx-MTX PD (100 nM) on Boc-Gln-Ala-Arg-AMC by rHAI-2ΔKD2 (500 nM) [1]: 99%
B1			inhibition of the in vitro proteolytic activity of Trx-MTX PD (100 nM) on Boc-Gln-Ala-Arg-AMC by rHAI-2 WT (500 nM) [1]: 99%
B2	10	45.7	
B3	10	35.5	
